Read-outs that look alike come from different tables or passages of the source.
Tests used:
CTCF ZF3-ZF11 [1] = target: T1, CTCF ZF3-ZF11 (Homo sapiens, UniProt P49711 322-577); test: X-ray crystallography
T1 sequence: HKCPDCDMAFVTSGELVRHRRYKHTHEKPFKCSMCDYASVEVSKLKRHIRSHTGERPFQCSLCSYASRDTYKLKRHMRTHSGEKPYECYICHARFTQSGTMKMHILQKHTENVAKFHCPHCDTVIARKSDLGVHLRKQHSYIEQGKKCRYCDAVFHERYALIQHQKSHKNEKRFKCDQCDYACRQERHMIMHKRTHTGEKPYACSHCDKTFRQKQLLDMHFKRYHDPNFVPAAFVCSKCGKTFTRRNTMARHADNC

CTCF ZF3-ZF11 [2] = target: T1, CTCF ZF3-ZF11; test: X-ray crystallography; remark: listed apart in the source
CTCF ZF1-ZF7 [3] = target: T2, CTCF ZF1-ZF7 (Homo sapiens, UniProt P49711 263-465); test: X-ray crystallography
T2 sequence: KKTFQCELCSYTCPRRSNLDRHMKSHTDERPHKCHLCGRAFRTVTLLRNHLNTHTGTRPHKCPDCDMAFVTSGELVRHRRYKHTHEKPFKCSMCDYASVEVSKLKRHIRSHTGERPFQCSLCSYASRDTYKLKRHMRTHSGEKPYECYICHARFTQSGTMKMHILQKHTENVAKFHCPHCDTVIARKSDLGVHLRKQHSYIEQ

CTCF ZF1-ZF7 [4] = target: T2, CTCF ZF1-ZF7; test: fluorescence polarization

B1: 19-bp (dsDNA)
DNA 1: TGCGCCCCCTGCTGGTCCT
DNA 2: AGGACCAGCAGGGGGCGCA
CTCF ZF3-ZF11 [1]
  binding result: binds

B2: 35-4 (dsDNA)
DNA 1: GTGCAGTACCACATTTAACCAGCAGGGGGCGCTAA
DNA 2: TTAGCGCCCCCTGCTGGTTAAATGTGGTACTGCAC
CTCF ZF3-ZF11 [2]
  binding result: binds

B3: 23-bp (dsDNA)
DNA 1: GCCAGCAGGGGGCGCTAGTGAGG
DNA 2: CCTCACTAGCGCCCCCTGCTGGC
CTCF ZF1-ZF7 [3]
  binding result: binds

B4: FP oligo X:Y=A:T (dsDNA)
DNA 1: AGGACCAGCAGGGGACGCA
DNA 2: TGCGTCCCCTGCTGGTCCT
CTCF ZF1-ZF7 [4]
  binding signal: 7 fold reduced affinity vs G:C

Reference: paper PMC10484683
